Target: T1, Mycobacterium tuberculosis polyketide synthase 13 (Mycobacterium tuberculosis), I6X8D2
T1 chain: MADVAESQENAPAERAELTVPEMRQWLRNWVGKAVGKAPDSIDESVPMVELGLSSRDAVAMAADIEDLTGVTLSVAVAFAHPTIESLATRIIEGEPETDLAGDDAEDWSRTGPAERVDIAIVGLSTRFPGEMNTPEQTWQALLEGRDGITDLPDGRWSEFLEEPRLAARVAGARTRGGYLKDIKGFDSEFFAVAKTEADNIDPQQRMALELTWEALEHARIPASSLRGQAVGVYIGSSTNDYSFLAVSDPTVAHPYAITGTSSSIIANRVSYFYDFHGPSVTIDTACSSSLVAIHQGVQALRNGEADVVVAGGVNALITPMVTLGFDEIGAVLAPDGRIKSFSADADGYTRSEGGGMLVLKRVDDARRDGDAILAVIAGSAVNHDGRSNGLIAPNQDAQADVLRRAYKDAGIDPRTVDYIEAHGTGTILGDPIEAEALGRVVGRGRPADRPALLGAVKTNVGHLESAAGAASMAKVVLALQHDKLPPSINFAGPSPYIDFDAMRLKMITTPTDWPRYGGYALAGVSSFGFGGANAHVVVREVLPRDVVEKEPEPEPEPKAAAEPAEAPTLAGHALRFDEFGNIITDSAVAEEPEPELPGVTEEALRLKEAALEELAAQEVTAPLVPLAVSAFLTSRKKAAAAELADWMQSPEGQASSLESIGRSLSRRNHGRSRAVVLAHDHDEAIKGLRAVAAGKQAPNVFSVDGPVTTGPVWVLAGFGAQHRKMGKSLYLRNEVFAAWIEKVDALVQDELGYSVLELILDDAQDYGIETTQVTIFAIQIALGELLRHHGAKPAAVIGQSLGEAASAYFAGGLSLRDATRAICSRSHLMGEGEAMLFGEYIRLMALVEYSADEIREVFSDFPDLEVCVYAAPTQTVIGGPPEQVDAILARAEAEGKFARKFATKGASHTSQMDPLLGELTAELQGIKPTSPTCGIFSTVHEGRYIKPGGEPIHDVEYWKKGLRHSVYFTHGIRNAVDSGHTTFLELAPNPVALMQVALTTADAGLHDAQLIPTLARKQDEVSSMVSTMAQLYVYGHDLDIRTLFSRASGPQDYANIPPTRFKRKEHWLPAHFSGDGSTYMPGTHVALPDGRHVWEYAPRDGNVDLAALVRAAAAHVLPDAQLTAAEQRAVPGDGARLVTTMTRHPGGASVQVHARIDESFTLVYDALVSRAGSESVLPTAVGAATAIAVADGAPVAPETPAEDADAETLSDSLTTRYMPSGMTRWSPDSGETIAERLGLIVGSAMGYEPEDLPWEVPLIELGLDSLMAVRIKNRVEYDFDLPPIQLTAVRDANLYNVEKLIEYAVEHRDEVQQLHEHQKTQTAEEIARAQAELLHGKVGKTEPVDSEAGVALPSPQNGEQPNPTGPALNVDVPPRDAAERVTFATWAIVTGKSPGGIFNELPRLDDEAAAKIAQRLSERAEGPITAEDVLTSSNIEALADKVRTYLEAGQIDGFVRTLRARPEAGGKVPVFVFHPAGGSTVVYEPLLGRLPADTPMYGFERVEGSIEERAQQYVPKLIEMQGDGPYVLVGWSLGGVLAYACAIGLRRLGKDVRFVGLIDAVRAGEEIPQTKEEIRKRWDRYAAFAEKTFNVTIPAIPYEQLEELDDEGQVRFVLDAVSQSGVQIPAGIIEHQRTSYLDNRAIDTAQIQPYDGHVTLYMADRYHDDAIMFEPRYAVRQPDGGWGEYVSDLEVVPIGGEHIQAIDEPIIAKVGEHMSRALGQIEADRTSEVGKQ
Experiment: AUC
Conditions: remark: other sources report otherwise

B1: Mycobacterium tuberculosis polyketide synthase 13, I6X8D2 1-1733 (enzyme)
chain: MADVAESQENAPAERAELTVPEMRQWLRNWVGKAVGKAPDSIDESVPMVELGLSSRDAVAMAADIEDLTGVTLSVAVAFAHPTIESLATRIIEGEPETDLAGDDAEDWSRTGPAERVDIAIVGLSTRFPGEMNTPEQTWQALLEGRDGITDLPDGRWSEFLEEPRLAARVAGARTRGGYLKDIKGFDSEFFAVAKTEADNIDPQQRMALELTWEALEHARIPASSLRGQAVGVYIGSSTNDYSFLAVSDPTVAHPYAITGTSSSIIANRVSYFYDFHGPSVTIDTACSSSLVAIHQGVQALRNGEADVVVAGGVNALITPMVTLGFDEIGAVLAPDGRIKSFSADADGYTRSEGGGMLVLKRVDDARRDGDAILAVIAGSAVNHDGRSNGLIAPNQDAQADVLRRAYKDAGIDPRTVDYIEAHGTGTILGDPIEAEALGRVVGRGRPADRPALLGAVKTNVGHLESAAGAASMAKVVLALQHDKLPPSINFAGPSPYIDFDAMRLKMITTPTDWPRYGGYALAGVSSFGFGGANAHVVVREVLPRDVVEKEPEPEPEPKAAAEPAEAPTLAGHALRFDEFGNIITDSAVAEEPEPELPGVTEEALRLKEAALEELAAQEVTAPLVPLAVSAFLTSRKKAAAAELADWMQSPEGQASSLESIGRSLSRRNHGRSRAVVLAHDHDEAIKGLRAVAAGKQAPNVFSVDGPVTTGPVWVLAGFGAQHRKMGKSLYLRNEVFAAWIEKVDALVQDELGYSVLELILDDAQDYGIETTQVTIFAIQIALGELLRHHGAKPAAVIGQSLGEAASAYFAGGLSLRDATRAICSRSHLMGEGEAMLFGEYIRLMALVEYSADEIREVFSDFPDLEVCVYAAPTQTVIGGPPEQVDAILARAEAEGKFARKFATKGASHTSQMDPLLGELTAELQGIKPTSPTCGIFSTVHEGRYIKPGGEPIHDVEYWKKGLRHSVYFTHGIRNAVDSGHTTFLELAPNPVALMQVALTTADAGLHDAQLIPTLARKQDEVSSMVSTMAQLYVYGHDLDIRTLFSRASGPQDYANIPPTRFKRKEHWLPAHFSGDGSTYMPGTHVALPDGRHVWEYAPRDGNVDLAALVRAAAAHVLPDAQLTAAEQRAVPGDGARLVTTMTRHPGGASVQVHARIDESFTLVYDALVSRAGSESVLPTAVGAATAIAVADGAPVAPETPAEDADAETLSDSLTTRYMPSGMTRWSPDSGETIAERLGLIVGSAMGYEPEDLPWEVPLIELGLDSLMAVRIKNRVEYDFDLPPIQLTAVRDANLYNVEKLIEYAVEHRDEVQQLHEHQKTQTAEEIARAQAELLHGKVGKTEPVDSEAGVALPSPQNGEQPNPTGPALNVDVPPRDAAERVTFATWAIVTGKSPGGIFNELPRLDDEAAAKIAQRLSERAEGPITAEDVLTSSNIEALADKVRTYLEAGQIDGFVRTLRARPEAGGKVPVFVFHPAGGSTVVYEPLLGRLPADTPMYGFERVEGSIEERAQQYVPKLIEMQGDGPYVLVGWSLGGVLAYACAIGLRRLGKDVRFVGLIDAVRAGEEIPQTKEEIRKRWDRYAAFAEKTFNVTIPAIPYEQLEELDDEGQVRFVLDAVSQSGVQIPAGIIEHQRTSYLDNRAIDTAQIQPYDGHVTLYMADRYHDDAIMFEPRYAVRQPDGGWGEYVSDLEVVPIGGEHIQAIDEPIIAKVGEHMSRALGQIEADRTSEVGKQ
Q: Which stoichiometry N does the source give for B1 here?
A: 2
